The results in this text go back to PMC9296380, “Characterisation of recombinant GH 3 β-glucosidase from β-glucan producing Levilactobacillus brevis TMW 1.2112” (Antonie Van Leeuwenhoek, 2022).

Substrate in this data set: O=[N+]([O-])c1ccc(O[C@@H]2O[C@H](CO)[C@@H](O)[C@H](O)[C@H]2O)cc1
As to the kind of experiment: purified protein. Type of data set: biochemical, Levilactobacillus brevis. As to conditions: 50 mM PBS buffer pH 7, 37 °C, 0.01-20 mM substrate.

By Km is commonly meant the substrate concentration at which the rate is half of its maximum. The kcat is the maximal rate divided by the concentration of active sites.

B1: BglB (Levilactobacillus brevis) (protein)
chain: MDIERTLAELTLPEKAALVSGKNNWYTAAVDRLDLPALMMTDGPSGLRKQTNSGTTNINDAIQAITYPAAALSASTWNESLMHQLGEHLGIEARAEQVSLLLGPGVNMKRSPLGGRNFEYLAEDPLVAGKLGSAYVQGVQSQHVGVAVKHFAANNRENQRFTASSDMSERTLRELYLRTFEIIVKSAYPATIMTSYNKINGVLNSQNERLLRRILRDEWGFHGAVMSDWGAVANTVQALKAGLDLEMPGKGQASVNDIIRAVHTGELDEGTLNKAVRHLLHVVDDWLPADHAQPYDHAAHHQFARKLADDGIILLKNHEDELPLDPQTTGKVVVIGELAENPRFQGSGSSHVNPTKLVSPLDALADSGLKADYYPGYRLDQSETNGDLAEAALTAAKTADHVIIFAGYPETAESEGFDKASLMLPENQSDLIGSLAKANVHTTVVLQNGSAVEMPWIHSVAAVVETYLAGEAVGEATWDIITGAVNPSGHLTETFPRRLTDTPMAPTFGQDPHHEYYTEGIFMGYRYYDTHEMHVLFPFGHGLSYTTFEYTNLKLTQNERGATVTFDVTNTGARSGQAVPQLYIANHASHVPMPTKELRAFTKVAIAPGETETVTLALDRRDFSWWCEPKARWQADSGDYEVMIGESSRDIRLQVKLTMDFKNSPAPITTETYMAAIVKNPQLRDLFKQVVLAPEYAGPENFLATTDDQGSLQIFQDRMFMNMPLRAVVALGGPQALITDFITRANTLLRQ
notes: no signal peptide predicted; C-terminal His tag (stop codon removed, Myc region excised) from pBAD/Myc-His A; expressed in E. coli BL21, Ni-NTA purified; primer-encoded N-terminus MDIERTLAEL
In the case of B1, the Km is 220 µM and the kcat came out at 59.58 s⁻¹.
